Laboratory results: patent US20260224754A1, “ORAL FORMULATION TO ENSURE BIOAVAILABILITY OF PEPTIDE, PROTEIN, AND NUCLEIC ACID THERAPEUTICS” (THE TRUSTEES OF COLUMBIA UNIVERSITY IN THE CITY OF NEW YORK, priority 2023, published 2026)

Key:
muscles of WT male mice = experiment: muscle gene expression in WT mice treated with recombinant LCN2; assay type: in vivo
Description: (§1) Mean±SEM. *, P<0.05, Student's t test.
FIGS. 32A-32B show relative expression levels (fold over vehicle) of MyHCIIa and MyHCIIb in EDL of 12-week-old male Lcn2osb−/− or WT littermates (FIG. 32A) or 8-week-old WT male mice treated with the indicated doses of recombinant Lcn2 or vehicle (n=6/group) for 16 weeks (FIG. 32B). Mean±SEM. *, P<0.05, Student's t test.
FIGS. 34A-34B show relative expression levels (fold over vehicle) of the indicated genes in tibialis anterior of 12-week-old male Lcn2osb−/− or WT littermates (FIG. 34A) or 8-week-old WT male mice treated with 150 ng/g/day recombinant Lcn2 (n=7) or vehicle (n=8) for 16 weeks (FIG. 34B). Mean±SEM. *, P<0.05, Student's t test.
Regarding muscle function, LCN2 is required to maintain lean mass and endurance. […] Endurance measured as exercise distance of 6-month old LCN2−/− and WT littermates individually housed in cages equipped with voluntary running wheels and recorded for 14 days following a 7-day acclimation is shown in FIG. 28B. The increase in energy expenditure of overexpressed LCN2 can be explained in part from the increase in lean body mass, which is correlated to basal metabolic rate. […] Myogenic regulatory factors, namely myf5, mrf4, myoD and myoG. are transcription factors that regulate myogenesis. In the knockout mice, these myogenic factors either decreased or had little change though seems to trend to decrease.
Furthermore, the effect was studied in the specific type of type two muscle fiber. Type IIb is the classical fast twitch, white meat, glycolytic fiber type, whereas type IIa is still considered fast twitch but with oxidative capacity. It is considered in between an in between muscle fiber type between type 1, which are the slow twitch, red meat, oxidative muscle fiber, and classic type IIB. […] Both type II fibers are fast twitch, primarily glycolytic muscle fibers, but the type A ones are characterized by more mitochondria and seem to be more oxidative. […]

C2C12 cells = experiment: gene expression and PKA/cAMP in C2C12 cells treated with recombinant LCN2; assay type: cell-based, mouse
Method: as §1
FIG. 37 show relative expression levels (fold over vehicle) of AcylcoA, Mcad and Ucp2 in C2C12 cells treated with increasing concentrations of recombinant Lcn2 for 4 h. Mean±SEM. *, P<0.05, Student's t test.
The in vivo results were confirmed in vitro. […] FIG. 40 summarizes how LCN2 regulate lean body mass with an increase in myogenesis and energy expenditure.

B1: LCN2: bone-derived hormone, also known as oncogene 24p3 or neutrophil gelatinase-associated lipocalin (protein, UniProt P80188 21-198, looked up)
Neutrophil …: QDSTSDLIPAPPLSKVPLQQNFQDNQFQGKWYVVGLAGNAILREDKDPQKMYATIYELKEDKSYNVTSVLFRKKKCDYWIRTFVPGCQPGEFTLGNIKSYPGLTSYLVRVVSTNYNQHAMVFFKKVSQNREYFKITLYGRTKELTSELKENFIRFSKSLGLPENHIVFPVPIDQCIDG
Muscles of WT male mice; EDL, WT male mice, 16 weeks
  myosin heavy chain type IIa versus type IIb: increases the amount of myosin heavy chain type IIa compared to type IIb
Muscles of WT male mice; male WT mice treated with LCN2
  expression of myogenic regulatory factors (myf5, mrf4, myoD, myoG): at least a twofold increase in all myogenic regulatory factors
Muscles of WT male mice; tibialis anterior, WT mice treated with LCN2
  expression of mitochondrial genes: increase in these mitochondrial genes
C2C12 cells; 4 h
  expression of genes associated with beta-oxidation: increase in the expression of genes associated with B-oxidation
  expression of genes that promote mitochondrial biogenesis (NRF1, Pgc1a): increases the expression of genes that promote mitochondrial biogenesis
  expression of genes that promote myogenesis: increases the expression of genes that promote myogenesis
C2C12 cells; Western blot and ELISA
  PKA/cAMP activity: induces PKA/cAMP activity
